T1: FLAG-SUP-12 (Caenorhabditis elegans, UniProt O45189 1-248)
T1 sequence: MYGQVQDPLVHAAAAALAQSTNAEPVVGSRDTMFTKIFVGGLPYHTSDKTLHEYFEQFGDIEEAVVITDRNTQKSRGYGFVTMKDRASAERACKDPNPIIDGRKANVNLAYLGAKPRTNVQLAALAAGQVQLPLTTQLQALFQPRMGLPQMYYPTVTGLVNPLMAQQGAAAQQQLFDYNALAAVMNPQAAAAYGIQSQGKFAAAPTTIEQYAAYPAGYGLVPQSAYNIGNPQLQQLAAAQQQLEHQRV


Key:
[1] = molecular target: T1, FLAG-SUP-12; test: EMSA; 20 mM HEPES-KOH pH 7.9, 150 mM KCl, 5% glycerol (EMSA only), 1% Triton X-100, 1 mM DTT, 0.1 mM PMSF, 100 ng/ul E. coli tRNA, 50 ng/ul BSA, 30 min, 20 C; details: protein: recombinant; tags: FLAG; label: 32P (alpha-32P UTP, internal)
[2] = molecular target: T1, FLAG-SUP-12; test: EMSA; similar extent to WT; 20 mM HEPES-KOH pH 7.9, 150 mM KCl, 5% glycerol (EMSA only), 1% Triton X-100, 1 mM DTT, 0.1 mM PMSF, 100 ng/ul E. coli tRNA, 50 ng/ul BSA, 30 min, 20 C; details: protein: recombinant; tags: FLAG; label: 32P (alpha-32P UTP, internal)

Binder | binding result [1] | binding result [2]
GGGAGACUAACCUAACCUAACCUAUGUGUGCCUGUUUUCUAG (ssRNA) [unc-60 intron 1A WT EMSA probe] | binds | –
GGGAGACAAACCAAACCAAACCUAUGUGUGCCUGUUUUCUAG (ssRNA) [unc-60 intron 1A M1 EMSA probe] | – | binds

Reference: paper PMC3469465, “Muscle-Specific Splicing Factors ASD-2 and SUP-12 Cooperatively Switch Alternative Pre-mRNA Processing Patterns of the ADF/Cofilin Gene in Caenorhabditis elegans”
